Assay [1] addresses T1, human CD70 expressed on the surface of cells (human) (UniProt P32970).
T1 sequence (looked up): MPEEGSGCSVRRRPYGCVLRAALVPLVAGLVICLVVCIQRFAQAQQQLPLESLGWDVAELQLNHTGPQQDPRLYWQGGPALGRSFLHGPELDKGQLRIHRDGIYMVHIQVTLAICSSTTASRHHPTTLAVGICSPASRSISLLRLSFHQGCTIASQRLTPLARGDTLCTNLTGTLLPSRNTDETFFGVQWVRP
As to the kind of experiment: flow cytometry on U266 cells, goat anti human IgG1 FITC [panel U266].

For assay [2], the target named is T1, human CD70 expressed on the surface of cells (human). As to the kind of experiment: flow cytometry on U266 cells, 1 h at 4 °C, anti-hIgG1-Fc-FITC or anti-hIgG-Fc-PE [panel U266]. For orientation: Flow cytometry measures light scatter and fluorescence of single cells or particles in a stream.
The target in assay [3] is T2, recombinant human CD70 (Flag-TNC-CD70) (human) (UniProt P32970).
T2 sequence (looked up): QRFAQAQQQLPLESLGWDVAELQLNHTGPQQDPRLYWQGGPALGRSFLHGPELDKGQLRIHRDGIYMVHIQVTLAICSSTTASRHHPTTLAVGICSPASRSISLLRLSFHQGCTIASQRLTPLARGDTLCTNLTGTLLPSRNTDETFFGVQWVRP
As to the kind of experiment: blocking ELISA; human Flag-TNC-CD70; competitor CD27-Fc. For orientation: ELISA stands for enzyme-linked immunosorbent assay.

The target of assay [4] is T1, human CD70 expressed on the surface of cells (human). In words: flow cytometry on SU-DHL-6 cells, 1 h at 4 °C, anti-hIgG1-Fc-FITC or anti-hIgG-Fc-PE [panel SU-DHL-6].
Assay [5] deals with T2, recombinant human CD70 (Flag-TNC-CD70) (human). As to the kind of experiment: blocking ELISA; Flag-TNC-CD70 captured by anti-FLAG M2; competitor CD27-Fc 6.5 nM.

On to MDX1411 (antibody), for which the values for the EC50 (read off the curve) in assay [1], in assay [2] and in assay [4] were 0.1 µg/mL, 0.1 µg/mL and 2 µg/mL, respectively. Moreover, the figures for the IC50 in assay [3] and in assay [5] were 0.044 µg/mL and 5.5 µg/mL, respectively.

A word on the EC50 (read off the curve): it is the concentration needed to bring the measured effect to its halfway point. The IC50 is the concentration at which inhibition is half-maximal.

(Values after US20150266963A1.)
